The source of these data is PMC11507401, “Functional and Physiological Characterization of Tyrosine Decarboxylases from Olea europaea L. Involved in the Synthesis of the Main Phenolics in Olive Fruit and Virgin Olive Oil” (International Journal of Molecular Sciences, 2024).

In one data set the target is T1, OeTDC2 (Olea europaea, UniProt A0A8S0SA91).
T1 construct: gene OLEA9_A073377
Put plainly: activity of enzyme extracted and purified with or without PLP. It is filed as biochemical. To be noted: PLP in or omitted from lysis and purification buffers; tightly bound cofactor.

The next data set deals with T2, OeTDC1 (Olea europaea, UniProt A0AB74UCV8).
T2 construct: gene TDC1
Described as above. It is filed as biochemical. As to conditions: PLP in or omitted from lysis and purification buffers; tightly bound cofactor.

Substrate in data set [1]: N[C@@H](Cc1ccc(O)c(O)c1)C(=O)O
Put plainly: purified protein. To be noted: 50 mM Tris-HCl pH 8.0, 40 °C, 200 µM PLP, 15 min. It is filed as biochemical, Olea europaea.

Substrate in data set [2]: N[C@@H](Cc1ccc(O)cc1)C(=O)O
Put plainly: purified protein. It is filed as biochemical, Olea europaea. To be noted: 50 mM Tris-HCl pH 8.0, 40 °C, 200 µM PLP, 15 min.

T1 sequence (A0A8S0SA91 entry or part of it): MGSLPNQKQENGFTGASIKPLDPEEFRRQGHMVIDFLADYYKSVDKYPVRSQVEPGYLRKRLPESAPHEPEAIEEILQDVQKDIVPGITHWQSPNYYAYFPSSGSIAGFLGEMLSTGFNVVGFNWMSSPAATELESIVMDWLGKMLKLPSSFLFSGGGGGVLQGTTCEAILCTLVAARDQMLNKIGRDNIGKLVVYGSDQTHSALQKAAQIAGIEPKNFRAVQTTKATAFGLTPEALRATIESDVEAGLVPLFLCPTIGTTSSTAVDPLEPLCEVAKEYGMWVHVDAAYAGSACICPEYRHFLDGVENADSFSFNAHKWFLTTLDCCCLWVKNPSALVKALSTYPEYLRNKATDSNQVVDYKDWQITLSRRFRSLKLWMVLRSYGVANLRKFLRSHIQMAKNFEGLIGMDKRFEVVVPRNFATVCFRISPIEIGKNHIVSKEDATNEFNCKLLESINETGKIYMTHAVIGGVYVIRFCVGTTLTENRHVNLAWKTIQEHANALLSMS

Take `Cc1ncc(COP(=O)(O)O)c(C=O)c1O` [PLP]: the “activity of enzyme extracted and purified with or without PLP” value at OeTDC2 and on OeTDC1 was “it was observed that PLP binds tightly to the olive TDC proteins” in each case.

B1: OeTDC1 (Olea europaea subsp. europaea) (protein)
chain: MGSLQNQKPENGFTGAPIKPLDPEEFRRQGHMVIDFLADYYKNVEKYPVRSQVQPGYLRKRLPESAPHEPEPIEEILQDVQKDIVPGITHWQSPNYYAYFPSSGSIAGFLGEMLSTGFNVVGFNWMSSPAATELESIVMDWLGKMLNLPSSFLFSGGGGGVLQGTTCEGILCTLVAARDQMLNKIGRDNIGKLVVYGSDQTHSALQKAAQIAGIEPKNFRAVQTTKATAFGLTAEALRSTIESDVEAGLVPLFLCPTVGTTSSTAVDPIGPLCEVAKEYGMWVHVDAAYAGSACILPEYRHFLDGVENADSFSFNAHKWFLTTLDCCCLWVKNPSALVKALSTYPEYLRNKATDSNQVVDYKDWQITLSRRFRSLKLWLVLRSYGVANLRKFLRSHIQMAKNFEGLIGMDKRFEVVVPRNFATVCFRISPIEIGKNHIVSKEEVTNEFNSKLLESINEAGKIYVTHAVIGGVYVIRFCVGTTLTENRHVILAWKTIQEHANALLSMS
Usually Km stands for the concentration of substrate that gives half-maximal velocity. One may read the Vmax as the rate approached at saturating substrate. Usually kcat stands for the maximal rate divided by the concentration of active sites. The kcat/Km is the second-order rate constant that governs catalysis at low substrate concentration. Regarding B1, in the data set “purified protein [1]”, the Km worked out at 340 µM, the Vmax worked out at 4.08 µmol/min/mg, the catalytic constant (kcat) came out at 3.82 s⁻¹ and the catalytic efficiency (kcat/Km) amounted to 11300 M⁻¹ s⁻¹. In addition, in “purified protein [2]”, the Km turned out to be 1900 µM, the Vmax turned out to be 12.4 µmol/min/mg, the kcat stood at 12.8 s⁻¹ and the kcat/Km amounted to 6720 M⁻¹ s⁻¹.
